Values of other authors as cited in publication PMC6524963.
Where two headings read alike, the source gives them in different places.

How the values were obtained:
Ran (Homo sapiens) [1] = target: Ran (Homo sapiens) (UniProt P62826)
Ran (Homo sapiens) [2] = target: Ran (Homo sapiens) (UniProt P62826); remark: listed apart in the source

In the case of “RanBP1/RanBP2 RBD RBD (from UniProt P43487)”, the Kd (Ran (Homo sapiens) [1]) is given as 0.001 µM and the Kd (Ran (Homo sapiens) [2]) is given as 10 µM.
